{"source": "FireProtDB (doi:10.1021/bi00213a031)", "proteins": {"B1": {"name": "Tryptophan synthase alpha chain wild type, P0A877 (protein)", "chain": "MERYESLFAQLKERKEGAFVPFVTLGDPGIEQSLKIIDTLIEAGADALELGIPFSDPLADGPTIQNATLRAFAAGVTPAQCFEMLALIRQKHPTIPIGLLMYANLVFNKGIDEFYAQCEKVGVDSVLVADVPVEESAPFRQAALRHNVAPIFICPPNADDDLLRQIASYGRGYTYLLSRAGVTGAENRAALPLNHLVAKLKEYNAAPPLQGFGISAPDQVKAAIDAGAAGAISGSAIVKIIEQHINEPEKMLAALKVFVQPMKAATRS"}}, "conditions": "Escherichia coli (strain K12), pH 7.8, 25 °C, Urea, phosphate 58 mM, transition: 3, whole UniProt chain shown", "note": "“And” between values parts separate entries of the source, which are not always exact repeats. Equal entries are not always repeated."}
{"protein": "B1", "values": [{"measurement": "denaturant m value", "setting": "Absorbance", "value": "2.8 kcal/mol/M and 1.3 kcal/mol/M"}, {"measurement": "denaturant midpoint (higher = more stable)", "setting": "Absorbance", "value": "2.5 M and 3.9 M"}, {"measurement": "unfolding free energy", "setting": "Absorbance", "value": "6.8 kcal/mol and 5.1 kcal/mol"}, {"measurement": "denaturant m value", "setting": "CD", "value": "2.5 kcal/mol/M and 1.2 kcal/mol/M"}, {"measurement": "denaturant midpoint (higher = more stable)", "setting": "CD", "value": "2.5 M and 4 M"}, {"measurement": "unfolding free energy", "setting": "CD", "value": "6.2 kcal/mol and 4.6 kcal/mol"}]}
